Results taken from the supplement of paper PMC10567573.
± gives the standard deviation.

Assay: protein stability index of a GFP-peptide fusion (GPS, HEK-293T) (PSI 1-6); higher = more stable
Conditions: c terminus: a fixed tail appended
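Further: 24-mer peptide tiles fused after GFP, lentivirally expressed, FACS-sorted into six equal bins by GFP/DsRed ratio, decoded by Illumina sequencing, PSI is the read-weighted mean bin number.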

| Sequence | protein stability index (treatment: DMSO) | protein stability index (treatment: MLN4924 1 uM, 8 h) |
| --- | --- | --- |
| QAGSSQGLSLCQFQNFSLHDPLYG [LPCAT4] | 3 ± 0.41 | 2.98 ± 0.31 |
| EHSHRSHHSLASSLRSHHTHPSYG [DVL3] | 3.48 ± 0.25 | 3.56 ± 0.19 |
| RKFWWKNVKMIVLICVIVFIIILF [VAMP8] | 3.13 ± 0.32 | 2.98 ± 0.3 |
| LNRPGPAPLSSRKHVLYVEHRHLN [TCF25] | 3.14 ± 0.28 | 2.8 ± 0.15 |
| NDAYGPPSNFLEIDVSNPQTVGVG [SNX3] | 4.68 ± 0.35 | 4.59 ± 0.08 |
| TIYCSLQLQALNRRFQQTQYLALP [DLX1] | 2.53 ± 0.48 | 2.42 ± 0.62 |
| RVDVDTYLTSQLPPLREIILGPSS [NFE2L1] | 2.67 ± 0.46 | 2.67 ± 0.35 |
| LPKEASDGTGASQEPPTTDSQEAQ [TOR1AIP2] | 5.65 ± 0.29 | 5.54 ± 0.2 |
| KEQILEFLVLEQFLTILPEELQSW [ZNF232] | 3.21 ± 0.27 | 2.85 ± 0.62 |
| FEEYALVNQDILENKESWDKILAL [PRIM1] | 3.3 ± 0.31 | 3.6 ± 0.45 |
| SCSQNLLITQQIIPVLYCMVFIAG [P2RY14] | 3.03 ± 0.58 | 2.87 ± 0.73 |
| ADAISENYRIMSYFKEAELKDLLL [WEE1] | 2.61 ± 0.22 | 2.72 ± 0.54 |
| YSQDPVYANGGLNYSYRGYGALSS [NOL4L] | 2.4 ± 0.23 | 2.71 ± 0.2 |
| TQDPSQPNSTKNQSLPKASPVTTS [LCOR] | 5.21 ± 0.19 | 5.12 ± 0.23 |
| TQTSEECNGILTEKMEEEEQTCDP [ZNF396] | 5.5 ± 0.22 | 5.71 ± 0.17 |
| ESAQATFQAHRDKYEKLRGDVAIK [ARFIP2] | 4.37 ± 0.16 | 4.62 ± 0.18 |
| NIMTQNVERILARGENLEHLRNKT [VAMP8] | 3.46 ± 0.29 | 3.93 ± 0.068 |

| Sequence | protein stability index (treatment: DMSO) | protein stability index (treatment: MLN4924 1 uM, 8 h) |
| --- | --- | --- |
| SSSTMSKSEYMEIEEDMNNSIAHY [KCNA1] | 4.56 ± 0.33 | 4.5 ± 0.11 |
| KWFGRKRTLSAFLCLGGLACLIVM [SLC22A15] | 5.07 ± 0.21 | 5.17 ± 0.18 |
| VSRGGHGQQDLFRVLKAYTLYRPE [TBC1D10A] | 2.06 ± 0.17 | 2.12 ± 0.36 |
| MATLNRTAAGLMHTFNAHAATDIT [SEPHS2] | 2.95 ± 0.053 | 3.01 ± 0.19 |
| ICAIEYLHSKEIVYRDLKPENILL [PRKX] | 2.61 ± 0.39 | 2.96 ± 0.94 |
| MKFAQVFGCFFYVYYIFERLCAPL [SOAT1] | 2.89 ± 0.54 | 2.87 ± 0.51 |
| ADVWSLGVMLYTLLVGRYPFHDSD [TRIB1] | 3.15 ± 0.26 | 2.58 ± 0.26 |
| RGRMPPTQPTHGQFALTNGDPLNC [NR2F2] | 4.06 ± 0.12 | 3.97 ± 0.26 |
| PQSSKSTVVKSLIDNSSEIEDEDQ [FAN1] | 5.65 ± 0.14 | 5.6 ± 0.25 |
| PNADLLFSDPSQSDPETKDFWLNM [FCHO1] | 4.2 ± 0.21 | 4.19 ± 0.19 |
| NNQYSEGVQREAQRIALRLGNGND [KMT2E] | 4.51 ± 0.24 | 4.63 ± 0.18 |
| EETRQKQLLADEKMKQLTEETEVL [TRIM35] | 5.65 ± 0.11 | 5.57 ± 0.22 |
| FLTVGSVLQMWHIVDKCTELLREG [ZBTB22] | 3.09 ± 0.55 | 3.4 ± 0.32 |
| HMEGLIVRERILGADNIDVSHPII [FEM1B] | 3.25 ± 0.23 | 2.95 ± 0.28 |
| FHPDPRQKALYRRLATVHMSRMIN [CLPTM1] | 2.58 ± 0.55 | 2.39 ± 0.25 |
| ELLQQLDLNNCKNNLEPILEGYIS [KRT71] | 2.54 ± 0.1 | 2.62 ± 0.36 |
